Literature values as cited in US20220162649A1, “NOVEL NUCLEIC ACID MODIFIERS” (THE BROAD INSTITUTE, INC., priority 2019, published 2022).

test system: target DNA; settings: SaCas9 mutants; cited from earlier work

| Molecule | DNA cleavage activity, in words |
| --- | --- |
| SaCas9 T787A: SaCas9 phosphate lock loop mutant (protein, UniProt J7RUA5 1-1053, looked up, variant T787A) CRISPR-associated …: MKRNYILGLDIGITSVGYGIIDYETRDVIDAGVRLFKEANVENNEGRRSKRGARRLKRRRRHRIQRVKKLLFDYNLLTDHSELSGINPYEARVKGLSQKLSEEEFSAALLHLAKRRGVHNVNEVEEDTGNELSTKEQISRNSKALEEKYVAELQLERLKKDGEVRGSINRFKTSDYVKEAKQLLKVQKAYHQLDQSFIDTYIDLLETRRTYYEGPGEGSPFGWKDIKEWYEMLMGHCTYFPEELRSVKYAYNADLYNALNDLNNLVITRDENEKLEYYEKFQIIENVFKQKKKPTLKQIAKEILVNEEDIKGYRVTSTGKPEFTNLKVYHDIKDITARKEIIENAELLDQIAKILTIYQSSEDIQEELTNLNSELTQEEIEQISNLKGYTGTHNLSLKAINLILDELWHTNDNQIAIFNRLKLVPKKVDLSQQKEIPTTLVDDFILSPVVKRSFIQSIKVINAIIKKYGLPNDIIIELAREKNSKDAQKMINEMQKRNRQTNERIEEIIRTTGKENAKYLIEKIKLHDMQEGKCLYSLEAIPLEDLLNNPFNYEVDHIIPRSVSFDNSFNNKVLVKQEENSKKGNRTPFQYLSSSDSKISYETFKKHILNLAKGKGRISKTKKEYLLEERDINRFSVQKDFINRNLVDTRYATRGLMNLLRSYFRVNNLDVKVKSINGGFTSFLRRKWKFKKERNKGYKHHAEDALIIANADFIFKEWKKLDKAKKVMENQMFEEKQAESMPEIETEQEYKEIFITPHQIKHIKDFKDYKYSHRVDKKPNRELINDALYSTRKDDKGNTLIVNNLNGLYDKDNDKLKKLINKSPEKLLMYHHDPQTYQKLKLIMEQYGDEKNPLYKYYEETGNYLTKYSKKDNGPVIKKIKYYGNKLNAHLDITDDYPNSRNKVVKLSLKPYRFDVYLDNGVYKFVTVKNLDVIKKENYYEVNSKCYEEAKKLKKISNQAEFIASFYNNDLIKINGELYRVIGVNNDLLNRIEVNMIDITYREYLENMNDKRPPRIIKTIASKTQSIKKYSTDILGNLYEVKSKKHPQIIKKG | reduced DNA cleavage activity |
| D10A: SaCas9 RuvC catalytic residue mutant (protein, UniProt J7RUA5 1-1053, looked up, variant D10A) CRISPR-associated …: MKRNYILGLAIGITSVGYGIIDYETRDVIDAGVRLFKEANVENNEGRRSKRGARRLKRRRRHRIQRVKKLLFDYNLLTDHSELSGINPYEARVKGLSQKLSEEEFSAALLHLAKRRGVHNVNEVEEDTGNELSTKEQISRNSKALEEKYVAELQLERLKKDGEVRGSINRFKTSDYVKEAKQLLKVQKAYHQLDQSFIDTYIDLLETRRTYYEGPGEGSPFGWKDIKEWYEMLMGHCTYFPEELRSVKYAYNADLYNALNDLNNLVITRDENEKLEYYEKFQIIENVFKQKKKPTLKQIAKEILVNEEDIKGYRVTSTGKPEFTNLKVYHDIKDITARKEIIENAELLDQIAKILTIYQSSEDIQEELTNLNSELTQEEIEQISNLKGYTGTHNLSLKAINLILDELWHTNDNQIAIFNRLKLVPKKVDLSQQKEIPTTLVDDFILSPVVKRSFIQSIKVINAIIKKYGLPNDIIIELAREKNSKDAQKMINEMQKRNRQTNERIEEIIRTTGKENAKYLIEKIKLHDMQEGKCLYSLEAIPLEDLLNNPFNYEVDHIIPRSVSFDNSFNNKVLVKQEENSKKGNRTPFQYLSSSDSKISYETFKKHILNLAKGKGRISKTKKEYLLEERDINRFSVQKDFINRNLVDTRYATRGLMNLLRSYFRVNNLDVKVKSINGGFTSFLRRKWKFKKERNKGYKHHAEDALIIANADFIFKEWKKLDKAKKVMENQMFEEKQAESMPEIETEQEYKEIFITPHQIKHIKDFKDYKYSHRVDKKPNRELINDTLYSTRKDDKGNTLIVNNLNGLYDKDNDKLKKLINKSPEKLLMYHHDPQTYQKLKLIMEQYGDEKNPLYKYYEETGNYLTKYSKKDNGPVIKKIKYYGNKLNAHLDITDDYPNSRNKVVKLSLKPYRFDVYLDNGVYKFVTVKNLDVIKKENYYEVNSKCYEEAKKLKKISNQAEFIASFYNNDLIKINGELYRVIGVNNDLLNRIEVNMIDITYREYLENMNDKRPPRIIKTIASKTQSIKKYSTDILGNLYEVKSKKHPQIIKKG | almost no DNA cleavage activities |
| E477A: SaCas9 RuvC catalytic residue mutant (protein, UniProt J7RUA5 1-1053, looked up, variant E477A) CRISPR-associated …: MKRNYILGLDIGITSVGYGIIDYETRDVIDAGVRLFKEANVENNEGRRSKRGARRLKRRRRHRIQRVKKLLFDYNLLTDHSELSGINPYEARVKGLSQKLSEEEFSAALLHLAKRRGVHNVNEVEEDTGNELSTKEQISRNSKALEEKYVAELQLERLKKDGEVRGSINRFKTSDYVKEAKQLLKVQKAYHQLDQSFIDTYIDLLETRRTYYEGPGEGSPFGWKDIKEWYEMLMGHCTYFPEELRSVKYAYNADLYNALNDLNNLVITRDENEKLEYYEKFQIIENVFKQKKKPTLKQIAKEILVNEEDIKGYRVTSTGKPEFTNLKVYHDIKDITARKEIIENAELLDQIAKILTIYQSSEDIQEELTNLNSELTQEEIEQISNLKGYTGTHNLSLKAINLILDELWHTNDNQIAIFNRLKLVPKKVDLSQQKEIPTTLVDDFILSPVVKRSFIQSIKVINAIIKKYGLPNDIIIALAREKNSKDAQKMINEMQKRNRQTNERIEEIIRTTGKENAKYLIEKIKLHDMQEGKCLYSLEAIPLEDLLNNPFNYEVDHIIPRSVSFDNSFNNKVLVKQEENSKKGNRTPFQYLSSSDSKISYETFKKHILNLAKGKGRISKTKKEYLLEERDINRFSVQKDFINRNLVDTRYATRGLMNLLRSYFRVNNLDVKVKSINGGFTSFLRRKWKFKKERNKGYKHHAEDALIIANADFIFKEWKKLDKAKKVMENQMFEEKQAESMPEIETEQEYKEIFITPHQIKHIKDFKDYKYSHRVDKKPNRELINDTLYSTRKDDKGNTLIVNNLNGLYDKDNDKLKKLINKSPEKLLMYHHDPQTYQKLKLIMEQYGDEKNPLYKYYEETGNYLTKYSKKDNGPVIKKIKYYGNKLNAHLDITDDYPNSRNKVVKLSLKPYRFDVYLDNGVYKFVTVKNLDVIKKENYYEVNSKCYEEAKKLKKISNQAEFIASFYNNDLIKINGELYRVIGVNNDLLNRIEVNMIDITYREYLENMNDKRPPRIIKTIASKTQSIKKYSTDILGNLYEVKSKKHPQIIKKG | almost no DNA cleavage activities |
| H701A: SaCas9 RuvC catalytic residue mutant (protein, UniProt J7RUA5 1-1053, looked up, variant H701A) CRISPR-associated …: MKRNYILGLDIGITSVGYGIIDYETRDVIDAGVRLFKEANVENNEGRRSKRGARRLKRRRRHRIQRVKKLLFDYNLLTDHSELSGINPYEARVKGLSQKLSEEEFSAALLHLAKRRGVHNVNEVEEDTGNELSTKEQISRNSKALEEKYVAELQLERLKKDGEVRGSINRFKTSDYVKEAKQLLKVQKAYHQLDQSFIDTYIDLLETRRTYYEGPGEGSPFGWKDIKEWYEMLMGHCTYFPEELRSVKYAYNADLYNALNDLNNLVITRDENEKLEYYEKFQIIENVFKQKKKPTLKQIAKEILVNEEDIKGYRVTSTGKPEFTNLKVYHDIKDITARKEIIENAELLDQIAKILTIYQSSEDIQEELTNLNSELTQEEIEQISNLKGYTGTHNLSLKAINLILDELWHTNDNQIAIFNRLKLVPKKVDLSQQKEIPTTLVDDFILSPVVKRSFIQSIKVINAIIKKYGLPNDIIIELAREKNSKDAQKMINEMQKRNRQTNERIEEIIRTTGKENAKYLIEKIKLHDMQEGKCLYSLEAIPLEDLLNNPFNYEVDHIIPRSVSFDNSFNNKVLVKQEENSKKGNRTPFQYLSSSDSKISYETFKKHILNLAKGKGRISKTKKEYLLEERDINRFSVQKDFINRNLVDTRYATRGLMNLLRSYFRVNNLDVKVKSINGGFTSFLRRKWKFKKERNKGYKHAAEDALIIANADFIFKEWKKLDKAKKVMENQMFEEKQAESMPEIETEQEYKEIFITPHQIKHIKDFKDYKYSHRVDKKPNRELINDTLYSTRKDDKGNTLIVNNLNGLYDKDNDKLKKLINKSPEKLLMYHHDPQTYQKLKLIMEQYGDEKNPLYKYYEETGNYLTKYSKKDNGPVIKKIKYYGNKLNAHLDITDDYPNSRNKVVKLSLKPYRFDVYLDNGVYKFVTVKNLDVIKKENYYEVNSKCYEEAKKLKKISNQAEFIASFYNNDLIKINGELYRVIGVNNDLLNRIEVNMIDITYREYLENMNDKRPPRIIKTIASKTQSIKKYSTDILGNLYEVKSKKHPQIIKKG | almost no DNA cleavage activities |
| D704A: SaCas9 RuvC catalytic residue mutant (protein, UniProt J7RUA5 1-1053, looked up, variant D704A) CRISPR-associated …: MKRNYILGLDIGITSVGYGIIDYETRDVIDAGVRLFKEANVENNEGRRSKRGARRLKRRRRHRIQRVKKLLFDYNLLTDHSELSGINPYEARVKGLSQKLSEEEFSAALLHLAKRRGVHNVNEVEEDTGNELSTKEQISRNSKALEEKYVAELQLERLKKDGEVRGSINRFKTSDYVKEAKQLLKVQKAYHQLDQSFIDTYIDLLETRRTYYEGPGEGSPFGWKDIKEWYEMLMGHCTYFPEELRSVKYAYNADLYNALNDLNNLVITRDENEKLEYYEKFQIIENVFKQKKKPTLKQIAKEILVNEEDIKGYRVTSTGKPEFTNLKVYHDIKDITARKEIIENAELLDQIAKILTIYQSSEDIQEELTNLNSELTQEEIEQISNLKGYTGTHNLSLKAINLILDELWHTNDNQIAIFNRLKLVPKKVDLSQQKEIPTTLVDDFILSPVVKRSFIQSIKVINAIIKKYGLPNDIIIELAREKNSKDAQKMINEMQKRNRQTNERIEEIIRTTGKENAKYLIEKIKLHDMQEGKCLYSLEAIPLEDLLNNPFNYEVDHIIPRSVSFDNSFNNKVLVKQEENSKKGNRTPFQYLSSSDSKISYETFKKHILNLAKGKGRISKTKKEYLLEERDINRFSVQKDFINRNLVDTRYATRGLMNLLRSYFRVNNLDVKVKSINGGFTSFLRRKWKFKKERNKGYKHHAEAALIIANADFIFKEWKKLDKAKKVMENQMFEEKQAESMPEIETEQEYKEIFITPHQIKHIKDFKDYKYSHRVDKKPNRELINDTLYSTRKDDKGNTLIVNNLNGLYDKDNDKLKKLINKSPEKLLMYHHDPQTYQKLKLIMEQYGDEKNPLYKYYEETGNYLTKYSKKDNGPVIKKIKYYGNKLNAHLDITDDYPNSRNKVVKLSLKPYRFDVYLDNGVYKFVTVKNLDVIKKENYYEVNSKCYEEAKKLKKISNQAEFIASFYNNDLIKINGELYRVIGVNNDLLNRIEVNMIDITYREYLENMNDKRPPRIIKTIASKTQSIKKYSTDILGNLYEVKSKKHPQIIKKG | almost no DNA cleavage activities |
